Article PMC4188415

Experiments:
Test in all cases: ITC
[1] = target: ΔIBB-KPNA5 (66-509) (human)
[2] = target: KPNA1 in a 1:1 complex with eVP24 (human | Ebola virus) (UniProt P52294)
[3] = target: KPNA5 in a 1:1 complex with eVP24 (competition ITC) (human | Ebola virus) (UniProt O15131)
UniProt O15131, sequence (O15131 whole entry, chain 1 of 2): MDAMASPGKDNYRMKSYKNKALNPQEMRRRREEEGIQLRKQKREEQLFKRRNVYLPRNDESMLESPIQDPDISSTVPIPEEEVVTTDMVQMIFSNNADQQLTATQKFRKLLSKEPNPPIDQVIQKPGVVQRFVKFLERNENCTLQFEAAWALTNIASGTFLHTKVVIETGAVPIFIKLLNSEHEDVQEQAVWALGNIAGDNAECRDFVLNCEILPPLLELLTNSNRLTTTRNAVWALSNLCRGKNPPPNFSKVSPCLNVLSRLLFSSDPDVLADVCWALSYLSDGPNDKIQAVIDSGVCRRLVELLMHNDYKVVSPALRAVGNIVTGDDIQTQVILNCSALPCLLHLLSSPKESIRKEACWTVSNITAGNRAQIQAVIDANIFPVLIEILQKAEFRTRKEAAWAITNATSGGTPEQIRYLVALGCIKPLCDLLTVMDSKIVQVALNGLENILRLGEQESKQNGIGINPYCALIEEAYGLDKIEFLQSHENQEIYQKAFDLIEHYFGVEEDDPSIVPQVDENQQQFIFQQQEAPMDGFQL
UniProt O15131, sequence (Q05322 whole entry, chain 2 of 2, further chain): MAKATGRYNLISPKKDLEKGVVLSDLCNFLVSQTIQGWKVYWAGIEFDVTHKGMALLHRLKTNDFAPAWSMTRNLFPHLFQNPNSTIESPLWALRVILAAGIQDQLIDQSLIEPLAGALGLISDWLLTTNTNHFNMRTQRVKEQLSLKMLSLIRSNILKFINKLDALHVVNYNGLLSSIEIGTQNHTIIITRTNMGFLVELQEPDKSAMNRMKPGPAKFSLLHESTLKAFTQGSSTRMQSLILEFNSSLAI

UniProt P52294, sequence (P52294 whole entry, chain 1 of 2): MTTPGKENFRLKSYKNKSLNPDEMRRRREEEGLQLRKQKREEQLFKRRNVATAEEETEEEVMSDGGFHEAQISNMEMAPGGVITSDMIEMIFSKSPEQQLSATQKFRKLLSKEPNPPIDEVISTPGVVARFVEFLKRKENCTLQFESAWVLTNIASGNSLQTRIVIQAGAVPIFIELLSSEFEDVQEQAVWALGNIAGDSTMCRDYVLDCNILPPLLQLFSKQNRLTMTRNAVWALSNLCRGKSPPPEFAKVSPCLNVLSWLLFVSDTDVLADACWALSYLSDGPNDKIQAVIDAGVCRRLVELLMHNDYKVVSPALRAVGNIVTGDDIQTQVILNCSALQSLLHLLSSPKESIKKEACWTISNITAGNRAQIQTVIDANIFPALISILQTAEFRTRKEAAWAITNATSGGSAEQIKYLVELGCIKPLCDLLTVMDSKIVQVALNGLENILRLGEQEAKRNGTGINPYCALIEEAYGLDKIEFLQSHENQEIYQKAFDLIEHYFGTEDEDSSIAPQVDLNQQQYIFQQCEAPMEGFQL
UniProt P52294, sequence (Q05322 whole entry, chain 2 of 2, further chain): as the sequence (Q05322 whole entry, chain 2 of 2, further chain) above

Substance	Kd [1] [nM]	fold difference in binding against KPNA1 without eVP24 [2] [fold]	fold difference in binding against KPNA5 without eVP24 [3] [fold]
MBP-tagged eVP24 (residues 11-237) (from UniProt Q05322 11-237) (domain or fragment)	1 to 10		
nucleoplasmin peptide (bipartite cNLS)		2	2
